The text below walks through data of the Immune Epitope Database (IEDB).

Test in all cases: IEDB peptide-MHC binding, purified MHC/competitive/radioactivity; filed as Kd, often an IC50 or EC50 that approximates it; ≥ and ≤ were set here for values at or beyond the usual limits of such assays
For experiment [1], the target named is HLA-A*03:01.
Experiment [2] addresses HLA-A*11:01.
Experiment [3] concerns the target HLA-A*31:01.
Experiment [4] deals with HLA-A*33:01.
In experiment [5] the target is HLA-A*68:01.
Setting [6] is: source organism: Vaccinia virus WR.
The mark [7] stands for this setting: source organism: Mammarenavirus guanaritoense.
Where [8] appears, read: source organism: Triticum aestivum.
[9] abbreviates: source organism: Mammarenavirus juninense.
The mark [10] stands for this setting: source organism: SARS coronavirus Tor2.
Setting [11] is: source organism: Vaccinia virus Copenhagen.
[12] abbreviates: source organism: Mammarenavirus machupoense.
The mark [13] stands for this setting: source organism: Vaccinia virus.

Bounds are passed on as bounds.

In the case of SMRYQSLIPR, the dissociation constant (Kd) came to 1.35 nM in experiment [1] (setting [6]); 1.01 nM in experiment [2] (setting [6]); 0.363 nM in experiment [3] (setting [6]); 0.614 nM in experiment [4] (setting [6]); 20.2 nM in experiment [5] (setting [6]).
In the case of NSYSLIRLSH, the Kd in experiment [1] (setting [7]) is 9960 nM; in experiment [2] (setting [7]), at least 24600 nM; in experiment [3] (setting [7]), 9770 nM; in experiment [4] (setting [7]) it was 3250 nM; in experiment [5] (setting [7]) it was 10200 nM.
NIKPSKENR: the Kd in experiment [1] (setting [6]) is 7390 nM; in experiment [2] (setting [6]) it was at least 30400 nM; in experiment [3] (setting [6]) it was 545 nM; in experiment [4] (setting [6]), 338 nM; in experiment [5] (setting [6]), 10.5 nM.
The like results for RSSPPIPMSR were, in that order, 8.73 nM, 1.49 nM, 1.12 nM, 1600 nM and 245 nM.
With HAIILHQQQK, the Kd in experiment [1] (setting [8]) is 1270 nM; in experiment [2] (setting [8]), 1130 nM; in experiment [3] (setting [8]), 11000 nM; in experiment [4] (setting [8]), at least 44400 nM; in experiment [5] (setting [8]), 10.4 nM.
With KMLTFDVFR, the equilibrium dissociation constant (Kd) was 82.9 nM in experiment [1] (setting [6]); 2.96 nM in experiment [2] (setting [6]); 3.97 nM in experiment [3] (setting [6]); 365 nM in experiment [4] (setting [6]); 77.2 nM in experiment [5] (setting [6]).
The corresponding values for YALINLVQYR are 11700 nM, 6860 nM, 570 nM, 1270 nM and 21.8 nM.
Consider NSTTDAEACY, for which the Kd in experiment [1] (setting [6]) is at least 70100 nM; in experiment [2] (setting [6]), 17800 nM; in experiment [3] (setting [6]) it was at least 70000 nM; in experiment [4] (setting [6]) it was at least 70000 nM; in experiment [5] (setting [6]) it was 7370 nM.
As to NYTRFWYINH, the Kd in experiment [1] (setting [7]) was found to be 9020 nM; in experiment [2] (setting [7]), 12300 nM; in experiment [3] (setting [7]) it was 1340 nM; in experiment [4] (setting [7]), 48.8 nM; in experiment [5] (setting [7]), 4140 nM.
As to LIDTTSRELK, the Kd in experiment [1] (setting [6]) came out at 38.9 nM; in experiment [2] (setting [6]), 162 nM; in experiment [3] (setting [6]) it was 147 nM; in experiment [4] (setting [6]), 716 nM; in experiment [5] (setting [6]) it was 432 nM.
Take KTYIDVNEEY: the Kd in experiment [1] (setting [6]) is 1800 nM; in experiment [2] (setting [6]), 777 nM; in experiment [3] (setting [6]) it was 1880 nM; in experiment [4] (setting [6]), at least 70000 nM; in experiment [5] (setting [6]), 10500 nM.
The like results for QMAGVEVRY were, in that order, 49.6 nM, 2270 nM, at least 31200 nM, at least 20200 nM and 7430 nM.
With PCPLPHRLDR, the Kd in experiment [1] (setting [7]) was at least 70000 nM; in experiment [2] (setting [7]), at least 69700 nM; in experiment [3] (setting [7]) it was 2940 nM; in experiment [4] (setting [7]) it was at least 21800 nM; in experiment [5] (setting [7]), at least 31100 nM.
Regarding KIIETYLGR, the dissociation constant (Kd) in experiment [1] (setting [6]) is at least 78000 nM; in experiment [2] (setting [6]), at least 77900 nM; in experiment [3] (setting [6]), at least 77900 nM; in experiment [4] (setting [6]), at least 77700 nM; in experiment [5] (setting [6]), at least 77700 nM.
Regarding GLCAHILLY, the Kd in experiment [1] (setting [6]) came to 14 nM; in experiment [2] (setting [6]), 37.5 nM; in experiment [3] (setting [6]) it was 18000 nM; in experiment [4] (setting [6]), 8360 nM; in experiment [5] (setting [6]) it was 3200 nM.
With VFFTASLFLH, the dissociation constant Kd in experiment [1] (setting [9]) is 10400 nM; in experiment [2] (setting [9]) it was 10100 nM; in experiment [3] (setting [9]), 318 nM; in experiment [4] (setting [9]), 164 nM; in experiment [5] (setting [9]), at least 22700 nM.
Turning to ASCDAIMTR, the dissociation constant Kd is 19400 nM in experiment [1] (setting [10]); 79.4 nM in experiment [2] (setting [10]); 81.3 nM in experiment [3] (setting [10]); 83.5 nM in experiment [4] (setting [10]); 1440 nM in experiment [5] (setting [10]).
The like results for KLLQTLVLK were, in that order, 863 nM, 1070 nM, 2480 nM, at least 44900 nM and at least 39400 nM.
Turning to KSTSPTRTWK, the dissociation constant (Kd) in experiment [1] (setting [11]) came out at 11.1 nM; in experiment [2] (setting [11]) it was 21.7 nM; in experiment [3] (setting [11]), 101 nM; in experiment [4] (setting [11]), 6860 nM; in experiment [5] (setting [11]) it was 472 nM.
For KSIENKHQRR, the Kd in experiment [1] (setting [6]) stood at 11100 nM; in experiment [2] (setting [6]), 198 nM; in experiment [3] (setting [6]) it was 0.608 nM; in experiment [4] (setting [6]), 9320 nM; in experiment [5] (setting [6]), 11200 nM.
For RIDGAHLTK, the dissociation constant (Kd) is 26.7 nM in experiment [1] (setting [10]); 11.9 nM in experiment [2] (setting [10]); 1820 nM in experiment [3] (setting [10]); at least 77700 nM in experiment [4] (setting [10]); at least 25700 nM in experiment [5] (setting [10]).
In the case of KTNDINVRR, the Kd is 112 nM in experiment [1] (setting [6]); 30.1 nM in experiment [2] (setting [6]); 2.24 nM in experiment [3] (setting [6]); 16700 nM in experiment [4] (setting [6]); 12.1 nM in experiment [5] (setting [6]).
Consider EKFGHFCKYH, for which the Kd is at least 70000 nM in experiment [1] (setting [12]); at least 69700 nM in experiment [2] (setting [12]); at least 32800 nM in experiment [3] (setting [12]); at least 70000 nM in experiment [4] (setting [12]); at least 70100 nM in experiment [5] (setting [12]).
On to LLTDTIESAK, for which the Kd in experiment [1] (setting [6]) is 190 nM; in experiment [2] (setting [6]), 84.7 nM; in experiment [3] (setting [6]), 10100 nM; in experiment [4] (setting [6]), 2340 nM; in experiment [5] (setting [6]) it was 667 nM.
The like results for DVSLIIEYK were, in that order, 16100 nM, 152 nM, 72.2 nM, 111 nM and 3.57 nM.
The like results for VALYRRIQRR were, in that order, at least 70100 nM, at least 48200 nM, 562 nM, 1340 nM and at least 30500 nM.
VTSSGTIYK: the Kd in experiment [1] (setting [13]) stood at 8.08 nM; in experiment [2] (setting [13]), 0.595 nM; in experiment [3] (setting [13]) it was 0.577 nM; in experiment [4] (setting [13]) it was 10.2 nM; in experiment [5] (setting [13]), 16.8 nM.
Take TLLPLTQYNR: the dissociation constant (Kd) in experiment [1] (setting [10]) is 7220 nM; in experiment [2] (setting [10]) it was 8140 nM; in experiment [3] (setting [10]), 1340 nM; in experiment [4] (setting [10]) it was 4590 nM; in experiment [5] (setting [10]), 3410 nM.
For TIANSNIIK, the Kd in experiment [1] (setting [6]) worked out at 655 nM; in experiment [2] (setting [6]) it was 36.8 nM; in experiment [3] (setting [6]), 8980 nM; in experiment [4] (setting [6]), 10900 nM; in experiment [5] (setting [6]), 73.1 nM.
As to TVHKLTQDEK, the Kd is 12300 nM in experiment [1] (setting [6]); 80.5 nM in experiment [2] (setting [6]); at least 70000 nM in experiment [3] (setting [6]); at least 70000 nM in experiment [4] (setting [6]); 220 nM in experiment [5] (setting [6]).
In the case of FSGKSTELIR, the dissociation constant Kd is at least 38100 nM in experiment [1] (setting [6]); 17100 nM in experiment [2] (setting [6]); 1920 nM in experiment [3] (setting [6]); 1790 nM in experiment [4] (setting [6]); 881 nM in experiment [5] (setting [6]).
The like results for TVVRDFENY were, in that order, at least 63000 nM, 1210 nM, at least 77900 nM, at least 77700 nM and 1100 nM.
For TSSTCMMCYK, the equilibrium dissociation constant (Kd) in experiment [1] (setting [10]) stood at 22.9 nM; in experiment [2] (setting [10]) it was 1.17 nM; in experiment [3] (setting [10]), 85.1 nM; in experiment [4] (setting [10]), 441 nM; in experiment [5] (setting [10]), 4.93 nM.
The like results for SFYVYANGGR were, in that order, 1650 nM, 1170 nM, 89.2 nM, 182 nM and 789 nM.
For the sequence FTTSLSLHK, the Kd in experiment [1] (setting [10]) came out at 1350 nM; in experiment [2] (setting [10]), 181 nM; in experiment [3] (setting [10]), 2860 nM; in experiment [4] (setting [10]), 1130 nM; in experiment [5] (setting [10]) it was 271 nM.
With SAGAGVLDK, the dissociation constant Kd in experiment [1] (setting [6]) was 243 nM; in experiment [2] (setting [6]) it was 316 nM; in experiment [3] (setting [6]) it was at least 26600 nM; in experiment [4] (setting [6]) it was at least 77700 nM; in experiment [5] (setting [6]), 3350 nM.
The like results for KSCICYGSY were, in that order, 437 nM, 6.88 nM, 418 nM, 364 nM and at least 29700 nM.
